Laboratory results from patent US20230242677A1.

Target: Protein A (Staphylococcus aureus) (UniProt P38507)
Experiment: Protein A interaction assay (POROS A column HPLC), acidic elution

## hu IgG (positive control) (antibody)
  retention time: 31.3 min
